Experimental data reported in article PMC4844702, “Selective inhibition of the kinase DYRK1A by targeting its folding process” (Nature Communications, 2016).

Legend:
Assay in all cases: co-IP; CDC37-nanoKAZ interaction assay: cleared lysates (HENG buffer, 50 mM HEPES-KOH pH 7.9, 150 mM NaCl, 20 mM Na2MoO4, 0.5% Triton X-100) of 293T cells added to 96-well plates coated with anti-FLAG M2, 4 °C for 3 h; luminescence of the captured CDC37-nanoKAZ normalized to the amount of captured 3xFLAG-DYRK1A; in some experiments cells were treated with FINDY or RD0392 for 24 h before lysis
Details in all cases: partners not purified
[1] = target: T1, 3xFLAG-DYRK1A Y319F/Y321F (human, UniProt Q13627 1-763, Y319F | Y321F)
T1 construct: DYRK1A, the variant in which Ser529 corresponds to Ser520 of the other variant; As m2 with the two substitutions; also called Y319F/Y321F mutant; Y321F/Y319F; source: 293T cells, transiently transfected, in lysate

[2] = target: T2, 3xFLAG-DYRK1A K188R (human, UniProt Q13627 1-763, K188R)
T2 construct: DYRK1A, the variant in which Ser529 corresponds to Ser520 of the other variant; As m2 with the substitution; also called K188R mutant; kinase-dead mutant; source: 293T cells, transiently transfected, in lysate

[3] = target: T3, 3xFLAG-DYRK1A Y321F (human, UniProt Q13627 1-763, Y321F)
T3 construct: DYRK1A, the variant in which Ser529 corresponds to Ser520 of the other variant; As m2 with the substitution; also called Y321F mutant; source: 293T cells, transiently transfected, in lysate

[4] = target: T4, 3xFLAG-DYRK1A S97A (human, UniProt Q13627 1-763, S97A)
T4 construct: DYRK1A, the variant in which Ser529 corresponds to Ser520 of the other variant; As m2 with the substitution; also called S97A mutant; source: 293T cells, transiently transfected, in lysate

B1: CDC37 fused with luciferase nanoKAZ (natural protein, UniProt Q16543 1-378, looked up)
chain: MVDYSVWDHIEVSDDEDETHPNIDTASLFRWRHQARVERMEQFQKEKEELDRGCRECKRKVAECQRKLKELEVAEGGKAELERLQAEAQQLRKEERSWEQKLEEMRKKEKSMPWNVDTLSKDGFSKSMVNTKPEKTEEDSEEVREQKHKTFVEKYEKQIKHFGMLRRWDDSQKYLSDNVHLVCEETANYLVIWCIDLEVEEKCALMEQVAHQTIVMQFILELAKSLKVDPRACFRQFFTKIKTADRQYMEGFNDELEAFKERVRGRAKLRIEKAMKEYEEEERKKRLGPGGLDPVEVYESLPEELQKCFDVKDVQMLQDAISKMDPTDAKYHMQRCIDSGLWVPNSKASEAKEGEEAGPGDPLLEAVPKTGDEKDVSV
notes: kinase-specific co-chaperone CDC37; also called CDC37-nanoKAZ; source: 293T cells stably expressing CDC37-nanoKAZ, in lysate
Q: Which results are given for B1?
A: fold change of luminescence relative to intact DYRK1A [1]: 6.2 fold; fold change of luminescence relative to intact DYRK1A [2]: 54 fold; fold change of luminescence relative to intact DYRK1A [3]: 5.2 fold; fold change of luminescence relative to intact DYRK1A [4]: 2.2 fold
